Values of other authors in paper PMC1976947.

Biological target: G-CSF receptor (Mus musculus) (UniProt P40223)
Sequence of UniProt P40223 (P40223 26-837): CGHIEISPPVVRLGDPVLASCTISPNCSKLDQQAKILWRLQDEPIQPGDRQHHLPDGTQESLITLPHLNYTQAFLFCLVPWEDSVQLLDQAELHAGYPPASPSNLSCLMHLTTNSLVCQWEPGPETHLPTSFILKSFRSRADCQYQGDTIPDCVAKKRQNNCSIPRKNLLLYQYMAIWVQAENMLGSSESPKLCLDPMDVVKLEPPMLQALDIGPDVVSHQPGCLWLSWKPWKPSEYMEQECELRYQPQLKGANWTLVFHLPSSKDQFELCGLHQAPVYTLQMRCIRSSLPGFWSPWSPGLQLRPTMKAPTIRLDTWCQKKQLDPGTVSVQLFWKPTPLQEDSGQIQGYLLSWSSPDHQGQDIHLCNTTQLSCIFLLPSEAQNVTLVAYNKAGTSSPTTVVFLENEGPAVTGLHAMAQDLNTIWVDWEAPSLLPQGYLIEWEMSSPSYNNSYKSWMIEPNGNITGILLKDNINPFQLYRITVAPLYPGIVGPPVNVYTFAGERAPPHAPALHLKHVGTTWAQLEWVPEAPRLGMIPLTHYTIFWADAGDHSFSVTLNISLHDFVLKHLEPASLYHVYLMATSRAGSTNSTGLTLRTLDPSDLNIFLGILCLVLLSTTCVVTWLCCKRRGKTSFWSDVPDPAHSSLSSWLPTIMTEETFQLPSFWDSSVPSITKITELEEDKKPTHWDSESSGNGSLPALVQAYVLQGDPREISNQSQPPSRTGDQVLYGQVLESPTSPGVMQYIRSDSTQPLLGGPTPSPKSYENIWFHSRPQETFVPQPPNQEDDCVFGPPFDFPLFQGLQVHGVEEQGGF

Sequence of G-CSF (P09919 31-207): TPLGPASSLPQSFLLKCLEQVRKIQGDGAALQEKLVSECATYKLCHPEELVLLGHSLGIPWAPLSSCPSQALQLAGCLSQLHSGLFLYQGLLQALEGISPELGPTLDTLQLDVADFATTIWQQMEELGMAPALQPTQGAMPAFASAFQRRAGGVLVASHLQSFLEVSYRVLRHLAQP

- Kd: 0.07 nM
Substance: G-CSF (from UniProt P09919)
